# Results from publication PMC3393700, “Localization and Sub-Cellular Shuttling of HTLV-1 Tax with the miRNA Machinery” (PLoS ONE, 2012).
# B1: Drosha (endogenous, 293T cell lysate) (enzyme, human (endogenous in 293T), UniProt Q9NRR4 1-1374, looked up)
# chain: MMQGNTCHRMSFHPGRGCPRGRGGHGARPSAPSFRPQNLRLLHPQQPPVQYQYEPPSAPSTTFSNSPAPNFLPPRPDFVPFPPPMPPSAQGPLPPCPIRPPFPNHQMRHPFPVPPCFPPMPPPMPCPNNPPVPGAPPGQGTFPFMMPPPSMPHPPPPPVMPQQVNYQYPPGYSHHNFPPPSFNSFQNNPSSFLPSANNSSSPHFRHLPPYPLPKAPSERRSPERLKHYDDHRHRDHSHGRGERHRSLDRRERGRSPDRRRQDSRYRSDYDRGRTPSRHRSYERSRERERERHRHRDNRRSPSLERSYKKEYKRSGRSYGLSVVPEPAGCTPELPGEIIKNTDSWAPPLEIVNHRSPSREKKRARWEEEKDRWSDNQSSGKDKNYTSIKEKEPEETMPDKNEEEEEELLKPVWIRCTHSENYYSSDPMDQVGDSTVVGTSRLRDLYDKFEEELGSRQEKAKAARPPWEPPKTKLDEDLESSSESECESDEDSTCSSSSDSEVFDVIAEIKRKKAHPDRLHDELWYNDPGQMNDGPLCKCSAKARRTGIRHSIYPGEEAIKPCRPMTNNAGRLFHYRITVSPPTNFLTDRPTVIEYDDHEYIFEGFSMFAHAPLTNIPLCKVIRFNIDYTIHFIEEMMPENFCVKGLELFSLFLFRDILELYDWNLKGPLFEDSPPCCPRFHFMPRFVRFLPDGGKEVLSMHQILLYLLRCSKALVPEEEIANMLQWEELEWQKYAEECKGMIVTNPGTKPSSVRIDQLDREQFNPDVITFPIIVHFGIRPAQLSYAGDPQYQKLWKSYVKLRHLLANSPKVKQTDKQKLAQREEALQKIRQKNTMRREVTVELSSQGFWKTGIRSDVCQHAMMLPVLTHHIRYHQCLMHLDKLIGYTFQDRCLLQLAMTHPSHHLNFGMNPDHARNSLSNCGIRQPKYGDRKVHHMHMRKKGINTLINIMSRLGQDDPTPSRINHNERLEFLGDAVVEFLTSVHLYYLFPSLEEGGLATYRTAIVQNQHLAMLAKKLELDRFMLYAHGPDLCRESDLRHAMANCFEALIGAVYLEGSLEEAKQLFGRLLFNDPDLREVWLNYPLHPLQLQEPNTDRQLIETSPVLQKLTEFEEAIGVIFTHVRLLARAFTLRTVGFNHLTLGHNQRMEFLGDSIMQLVATEYLFIHFPDHHEGHLTLLRSSLVNNRTQAKVAEELGMQEYAITNDKTKRPVALRTKTLADLLESFIAALYIDKDLEYVHTFMNVCFFPRLKEFILNQDWNDPKSQLQQCCLTLRTEGKEPDIPLYKTLQTVGPSHARTYTVAVYFKGERIGCGKGPSIQQAEMGAAMDALEKYNFPQMAHQKRFIERKYRQELKEMRWEREHQEREPDETEDIKK
# Experiments:
# [1] = target: Tax deletion mutant TD1 (Δ1–37) (HTLV-1, UniProt P03409 38-353); assay: cell-based or functional assay
# [2] = target: Tax deletion mutant TD55 (Δ55–92) (HTLV-1, UniProt P03409 1-353, Δ55–92); assay: cell-based or functional assay
binder,measurement,setting,value
B1,"miR326 expression (quantiMiR PCR, normalized to U6, relative to mock) in 293T cells transfected with the Tax mutant",[1],1.5 fold
same,"miR326 expression (quantiMiR PCR, normalized to U6, relative to mock) in 293T cells transfected with the Tax mutant",[2],4 fold
